Measured values: publication PMC10343182, “Homogeneous Electrochemical Aptamer Sensor Based on Two-Dimensional Nanocomposite Probe and Nanochannel Modified Electrode for Sensitive Detection of Carcinoembryonic Antigen”

What was measured:
[1] = molecular target: T1, alpha fetoprotein (AFP) (UniProt P02771 19-609); assay: electrochemical sensor (DPV), aptamer release from graphene oxide; Ru(NH3)6 3+, GO; PBS (sodium phosphate) 0.01 M, pH 7.4; GO 0.1 mg/mL, aptamer 1 uM, Ru(NH3)6 3+ 50 uM (optimum); temperature not stated; conditions: protein: commercial
T1 sequence: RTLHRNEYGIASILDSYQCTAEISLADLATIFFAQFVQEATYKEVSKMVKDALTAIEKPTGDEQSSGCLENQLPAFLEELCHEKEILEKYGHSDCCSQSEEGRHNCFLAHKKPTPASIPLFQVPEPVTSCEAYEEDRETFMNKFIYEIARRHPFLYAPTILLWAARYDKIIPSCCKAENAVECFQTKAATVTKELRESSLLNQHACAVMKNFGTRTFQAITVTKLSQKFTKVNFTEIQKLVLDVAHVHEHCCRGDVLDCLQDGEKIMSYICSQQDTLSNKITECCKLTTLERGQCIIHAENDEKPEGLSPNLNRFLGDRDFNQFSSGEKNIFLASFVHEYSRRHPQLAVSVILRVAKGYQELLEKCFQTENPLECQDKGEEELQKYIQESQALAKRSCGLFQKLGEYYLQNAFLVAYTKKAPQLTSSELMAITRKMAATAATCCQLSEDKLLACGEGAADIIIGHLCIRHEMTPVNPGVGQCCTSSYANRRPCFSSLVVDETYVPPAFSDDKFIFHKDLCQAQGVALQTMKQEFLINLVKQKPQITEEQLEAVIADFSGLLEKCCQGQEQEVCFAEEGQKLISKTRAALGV

[2] = molecular target: cancer antigen 153 (CA153) (UniProt P15941 24-1097); assay: as above; conditions: protein: commercial
cancer antigen 153 (CA153), sequence (P15941 24-1097): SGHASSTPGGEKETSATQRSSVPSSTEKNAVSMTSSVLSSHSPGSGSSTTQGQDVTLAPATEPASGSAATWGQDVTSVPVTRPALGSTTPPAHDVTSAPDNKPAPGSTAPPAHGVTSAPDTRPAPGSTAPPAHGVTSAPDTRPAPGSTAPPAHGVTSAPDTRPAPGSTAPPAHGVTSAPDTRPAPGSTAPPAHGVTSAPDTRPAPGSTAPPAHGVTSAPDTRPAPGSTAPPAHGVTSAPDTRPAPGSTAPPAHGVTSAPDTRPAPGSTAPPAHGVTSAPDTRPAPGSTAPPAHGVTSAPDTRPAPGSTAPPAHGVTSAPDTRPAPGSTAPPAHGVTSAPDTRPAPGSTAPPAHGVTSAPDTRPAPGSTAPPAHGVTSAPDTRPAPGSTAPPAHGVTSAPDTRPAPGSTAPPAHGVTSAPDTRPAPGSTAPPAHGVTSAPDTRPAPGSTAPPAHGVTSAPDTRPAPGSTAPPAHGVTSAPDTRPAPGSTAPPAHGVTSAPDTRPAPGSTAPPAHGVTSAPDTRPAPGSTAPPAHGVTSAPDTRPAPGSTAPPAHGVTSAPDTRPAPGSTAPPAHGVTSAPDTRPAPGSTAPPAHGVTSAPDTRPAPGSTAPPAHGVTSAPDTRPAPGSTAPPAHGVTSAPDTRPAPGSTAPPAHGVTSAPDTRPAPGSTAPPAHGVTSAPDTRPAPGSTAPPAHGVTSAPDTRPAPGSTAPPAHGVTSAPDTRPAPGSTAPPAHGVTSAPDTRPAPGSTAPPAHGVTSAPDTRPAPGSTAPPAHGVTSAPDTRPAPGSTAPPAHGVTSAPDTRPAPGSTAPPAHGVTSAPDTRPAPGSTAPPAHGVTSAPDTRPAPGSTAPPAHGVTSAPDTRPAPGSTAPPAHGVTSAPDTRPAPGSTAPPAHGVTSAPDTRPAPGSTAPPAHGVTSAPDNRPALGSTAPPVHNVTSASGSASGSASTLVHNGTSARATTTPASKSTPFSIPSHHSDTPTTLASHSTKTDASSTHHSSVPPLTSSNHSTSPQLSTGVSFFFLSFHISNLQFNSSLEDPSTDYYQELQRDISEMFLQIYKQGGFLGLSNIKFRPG

[3] = molecular target: prostate specific antigen (PSA) (UniProt P07288 25-261); assay: as above; conditions: protein: commercial
prostate specific antigen (PSA), sequence (P07288 25-261): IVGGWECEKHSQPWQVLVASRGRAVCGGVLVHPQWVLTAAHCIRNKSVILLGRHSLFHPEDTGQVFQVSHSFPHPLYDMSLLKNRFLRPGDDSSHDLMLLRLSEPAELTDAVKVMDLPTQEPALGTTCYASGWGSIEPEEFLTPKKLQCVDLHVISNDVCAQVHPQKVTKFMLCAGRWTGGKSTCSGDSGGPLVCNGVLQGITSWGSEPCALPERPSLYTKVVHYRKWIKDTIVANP

[4] = molecular target: T2, C-reactive protein (CRP) (UniProt P02741 19-224); assay: as above; conditions: protein: commercial; chain copies: 5
T2 sequence: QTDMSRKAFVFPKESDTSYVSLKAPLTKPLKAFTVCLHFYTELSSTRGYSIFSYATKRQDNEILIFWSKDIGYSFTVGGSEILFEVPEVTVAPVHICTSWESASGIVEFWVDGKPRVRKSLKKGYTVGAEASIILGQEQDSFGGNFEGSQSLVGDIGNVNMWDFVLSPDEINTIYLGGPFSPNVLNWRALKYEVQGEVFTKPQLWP

[5] = molecular target: carcinoembryonic antigen (CEA) (UniProt P06731 35-685); assay: electrochemical sensor (DPV/CV), aptamer release from graphene oxide; Ru(NH3)6 3+, GO; sensor LOD 14 fg/mL, linear 60 fg/mL-100 ng/mL (not Kd); PBS (sodium phosphate) 0.01 M, pH 7.4; GO 0.1 mg/mL, aptamer 1 uM, Ru(NH3)6 3+ 50 uM (optimum); temperature not stated; conditions: protein: commercial
carcinoembryonic antigen (CEA), sequence (P06731 35-685): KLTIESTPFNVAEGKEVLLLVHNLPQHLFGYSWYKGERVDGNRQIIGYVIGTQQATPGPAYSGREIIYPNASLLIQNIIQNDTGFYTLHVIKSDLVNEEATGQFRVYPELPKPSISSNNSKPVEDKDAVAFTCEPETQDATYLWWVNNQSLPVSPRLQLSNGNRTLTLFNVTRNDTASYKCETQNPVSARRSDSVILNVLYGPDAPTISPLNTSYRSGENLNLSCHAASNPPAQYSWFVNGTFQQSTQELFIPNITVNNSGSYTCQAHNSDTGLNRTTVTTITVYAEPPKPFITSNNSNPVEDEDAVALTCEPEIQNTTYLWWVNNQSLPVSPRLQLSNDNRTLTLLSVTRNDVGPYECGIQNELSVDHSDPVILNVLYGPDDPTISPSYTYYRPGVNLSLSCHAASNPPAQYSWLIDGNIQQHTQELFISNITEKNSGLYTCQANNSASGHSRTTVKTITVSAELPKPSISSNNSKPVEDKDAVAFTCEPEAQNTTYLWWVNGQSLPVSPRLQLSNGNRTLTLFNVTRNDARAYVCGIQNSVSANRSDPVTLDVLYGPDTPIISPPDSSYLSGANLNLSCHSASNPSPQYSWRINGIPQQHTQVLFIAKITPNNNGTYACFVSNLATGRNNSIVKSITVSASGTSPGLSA

ATACAGCTTCAATT (ssDNA, 3'-NH2) [CEA aptamer (Apt)]: no binding [1]; no binding [2]; no binding [3]. ATACAGCTTCAATT (ssDNA, 3'-NH2) [CEA aptamer (Apt)]: no binding [4]; binds [5].
